Reference: patent US6699715 (Bristol-Myers Squibb, dated 2004)
Each block holds one molecule with its values, some of them ahead of it.

Columns and labels:
[1] = molecular target: T1, human CD28 (human, UniProt P10747 19-220); experiment: cell-based or functional assay
T1 construct: whole, on cells; also called CD28 receptor; CD28 CHO cells

[2] = molecular target: T2, L6 antigen (human, UniProt P30408 1-202); experiment: flow cytometry on L6 positive H2981 tumor cells
T2 construct: whole, on cells; also called tumor associated antigen L6; L6 molecule
T2 sequence (looked up): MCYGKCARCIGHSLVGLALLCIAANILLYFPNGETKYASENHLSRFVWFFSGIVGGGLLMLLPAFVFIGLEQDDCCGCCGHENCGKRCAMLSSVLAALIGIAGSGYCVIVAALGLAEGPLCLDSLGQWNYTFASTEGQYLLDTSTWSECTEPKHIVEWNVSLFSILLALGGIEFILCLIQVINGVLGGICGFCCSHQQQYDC

[3] = molecular target: T2, L6 antigen; experiment: flow cytometry on L6 positive H2981 tumor cells, FITC anti-human IgG
Experimental: (§1) FIGS. 15a/b/c are line graphs showing that the bispecific 9.3/L6 sFvIg fusion protein binds to L6+ H2981 tumor cells and to CD28+ CHO cells. Panel 15A: L6+ H2981 tumor cells were incubated with L6 sFvIg ( - - - - ) at 0.5 μg/ml or 9.3 sFvIg ( . . . . ) at 0.5 μg/ml or 9.3/L6 sFvIg (_____) fusion protein at 0.5 μg/ml or with medium alone ( . . . . ). Panel 15B: CD28 CHO cells were incubated with 9.3 sFvIg ( - - - - ) at 1 μg/ml or 9.3/L6 sFvIg fusion protein (_____) at 1 μg/ml, or with medium alone ( . . . . ). Bound protein was detected with FITC conjugated goat anti-human IgG at 1:100. Panel 15C: CD28+ PHA blasts were incubated with FITC conjugated L6 α-idiotype mAb 13B ( . . . . ) as negative control, bispecific 9.3/L6 sFvIg at 0.5 μg/ml and bound protein detected with FITC conjugated L6 α-idiotypic mAb 13B ( - - - - ). Preincubation of cells with unlabelled 9.3 sFvIg inhibited binding of bispecific 9.3/L6 sFvIg as shown by a significant reduction in FITC-13B staining (_____). A total of 10,000 cells were analyzed per sample.
(§2) Binding activity of the 9.3 and 9.3/L6 sFvIg Fusion Protein: The binding of each sFvIg fusion protein was assayed by immunostaining and FACS analysis. […] 9.3 sFvIg and 9.3/L6 sFvIg were incubated with CD28 CHO cells and binding was detected using FITC anti-human IgG as shown in FIG. 15B. […]

[4] = molecular target: T1, human CD28; experiment: flow cytometry on CD28 CHO cells, FITC anti-human IgG
Experimental: as §1, §2

3H-Thymidine incorporation, + blasts; 9.3 mAb [1]: 58800 | 3H-Thymidine incorporation, + blasts; 9.3 mAb + 187.1 Ab [1]: 98300
Molecule: 9.3 monoclonal antibody

[3H]-thymidine incorporation of PHA blasts, 9.3/L6 at 0.05 µg/ml, +H3347 [1]: 97800 cpm | [3H]-thymidine incorporation of PHA blasts, 9.3/L6 at 0.05 µg/ml, no H3347 cells [1]: 4000 cpm | [3H]-thymidine incorporation of PHA blasts, 9.3/L6 at 0.1 µg/ml, +H3347 [1]: 115000 cpm | [3H]-thymidine incorporation of PHA blasts, 9.3/L6 at 0.1 µg/ml, no H3347 cells [1]: 9600 cpm | [3H]-thymidine incorporation of PHA blasts, 9.3/L6 at 0.5 µg/ml, +H3347 [1]: 145000 cpm | [3H]-thymidine incorporation of PHA blasts, 9.3/L6 at 0.5 µg/ml, no H3347 cells [1]: 69200 cpm | [3H]-thymidine incorporation of PHA blasts, untransfected H3347 preincubated with 9.3/L6 at 1 µg/ml, cells washed 3× [1]: 98000 cpm | proliferation of T cell blasts with 9.3/L6 sFvIg alone (FIG. 16) [1]: > 0.1 µg/mL | concentration of native L6 antibody that gives the same staining as 1 µg/ml of the fusion protein [2]: 0.5 µg/mL
Molecule: bispecific 9.3/L6 sFvIg fusion protein (bispecific antibody)

binding result [3]: no binding (tested: 1 µg/ml) | binding result [4]: binds
B1: 9.3 sFvIg (scFv, not shown: small tags and cut ends)
scFv: DIVLTQSPASLAVSLGQRATISCRASESVEYYVTSLMQWYQQKPGQPPKLLIFAASNVESGVPARFSGSGSGTNFSLNIHPVDEDDVAMYFCQQSRKVPYTFGGGTKLEIKRASGGGGSGGGGSGGGGSLAQVQLKESGPGLVTPSQSLSITCTVSGFSLSDYGVHWVRQSPGQGLECLGVIWAGGGTNYNSALMSRKSISKDNSKGQVFLKMKSLQADDTAVYYCARDKGYSYYYSMDYWGQGTSVTVSS
notes: Anti-human CD28 sFv of mouse mAb 9.3 fused to human Ig; from COS or CHO cells; also called 9.3 sFvIg fusion protein; monospecific 9.3 sFvIg
